In publication PMC10786891, “Massively parallel profiling of RNA-targeting CRISPR-Cas13d”:

T1: EsCas13d, nuclease-dead (Eubacterium siraeum, UniProt B0MS50, R295A;H300A;R849A;H854A)
T1 sequence: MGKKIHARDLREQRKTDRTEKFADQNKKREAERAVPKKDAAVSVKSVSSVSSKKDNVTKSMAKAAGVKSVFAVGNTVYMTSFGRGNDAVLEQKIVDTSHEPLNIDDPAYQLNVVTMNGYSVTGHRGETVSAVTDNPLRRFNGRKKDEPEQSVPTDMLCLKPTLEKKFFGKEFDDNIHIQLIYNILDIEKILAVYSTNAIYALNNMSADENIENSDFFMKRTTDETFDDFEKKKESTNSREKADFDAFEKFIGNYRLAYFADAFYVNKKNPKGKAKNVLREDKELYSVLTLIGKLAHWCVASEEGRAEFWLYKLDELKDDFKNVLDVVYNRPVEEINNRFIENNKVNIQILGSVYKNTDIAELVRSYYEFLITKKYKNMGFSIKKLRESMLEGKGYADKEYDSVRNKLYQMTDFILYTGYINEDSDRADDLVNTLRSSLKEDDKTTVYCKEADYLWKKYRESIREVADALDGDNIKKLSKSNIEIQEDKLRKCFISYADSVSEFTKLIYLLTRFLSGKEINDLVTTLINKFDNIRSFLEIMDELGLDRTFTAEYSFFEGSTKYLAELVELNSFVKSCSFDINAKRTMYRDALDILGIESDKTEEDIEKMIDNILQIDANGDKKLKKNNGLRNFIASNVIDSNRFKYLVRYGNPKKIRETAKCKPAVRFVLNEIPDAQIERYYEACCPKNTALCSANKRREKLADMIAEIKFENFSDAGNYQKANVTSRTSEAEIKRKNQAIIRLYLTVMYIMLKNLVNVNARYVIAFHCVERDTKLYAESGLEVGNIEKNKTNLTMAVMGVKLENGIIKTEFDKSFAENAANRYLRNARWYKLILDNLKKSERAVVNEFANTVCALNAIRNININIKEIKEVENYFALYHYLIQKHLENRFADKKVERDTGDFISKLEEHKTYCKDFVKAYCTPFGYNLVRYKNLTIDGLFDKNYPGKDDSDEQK


Biological target: T1, EsCas13d, nuclease-dead
Assay: crRNA (strand 1, pre-loaded); Mg2+; 40 mM Tris-HCl pH 7.5, 150 mM NaCl, 6 mM MgCl2, 1 mM DTT, 0.1% Tween-20, 0.2 mg/ml BSA; 25 C; 10 min per concentration, then washed
Conditions: tags: His6-TwinStrep-SUMO cleaved; N-terminal SNAP kept (SNAP-Surface 488); label: 3' end held by stalled T7 RNA polymerase

Row | Binder | Kd [nM]
1 | target 1 C6G,A18G (mixed) RNA 1: CACCCGUGCAAAAAUGCAGGGGUCUAAAACUGAGCGGAUAACCUCUCUAUGG RNA 2: GGGAAUGGAUCCACAUCUACGAAUUCGUACCAUGGAGAGGUUAUCGGCUCACCGAGAUCGGAAGAGCACACGU | 48 ± 7
2 | target 1 insG 3' of 8,insC 3' of 1 (mixed) RNA 1: CACCCGUGCAAAAAUGCAGGGGUCUAAAACUGAGCGGAUAACCUCUCUAUGG RNA 2: GGGAAUGGAUCCACAUCUACGAAUUCGUACCAUAGAGAGGUUAUGCCGCUCACCCGAGAUCGGAAGAGCACACGU | 11.6 ± 0.5
3 | target 1 insU 3' of 21,insG 3' of 3 (mixed) RNA 1: CACCCGUGCAAAAAUGCAGGGGUCUAAAACUGAGCGGAUAACCUCUCUAUGG RNA 2: GGGAAUGGAUCCACAUCUACGAAUUCGUACCUAUAGAGAGGUUAUCCGCUGCACCGAGAUCGGAAGAGCACACGU | 16.8 ± 0.7
4 | target 1 insG 3' of 9 (mixed) RNA 1: CACCCGUGCAAAAAUGCAGGGGUCUAAAACUGAGCGGAUAACCUCUCUAUGG RNA 2: GGGAAUGGAUCCACAUCUACGAAUUCGUACCAUAGAGAGGUUAGUCCGCUCACCGAGAUCGGAAGAGCACACGU | 17.2 ± 1
5 | target 1 insC 3' of 3,insG 3' of 1 (mixed) RNA 1: CACCCGUGCAAAAAUGCAGGGGUCUAAAACUGAGCGGAUAACCUCUCUAUGG RNA 2: GGGAAUGGAUCCACAUCUACGAAUUCGUACCAUAGAGAGGUUAUCCGCUCCAGCCGAGAUCGGAAGAGCACACGU | 11.1 ± 0.8
6 | target 1 insC 3' of 3,insC 3' of 1 (mixed) RNA 1: CACCCGUGCAAAAAUGCAGGGGUCUAAAACUGAGCGGAUAACCUCUCUAUGG RNA 2: GGGAAUGGAUCCACAUCUACGAAUUCGUACCAUAGAGAGGUUAUCCGCUCCACCCGAGAUCGGAAGAGCACACGU | 15.8 ± 1.1
7 | target 1 insC 3' of 12,insU 3' of 5 (mixed) RNA 1: CACCCGUGCAAAAAUGCAGGGGUCUAAAACUGAGCGGAUAACCUCUCUAUGG RNA 2: GGGAAUGGAUCCACAUCUACGAAUUCGUACCAUAGAGAGGCUUAUCCGUCUCACCGAGAUCGGAAGAGCACACGU | 11.6 ± 1.5
8 | target 1 insG 3' of 19,insA 3' of 4 (mixed) RNA 1: CACCCGUGCAAAAAUGCAGGGGUCUAAAACUGAGCGGAUAACCUCUCUAUGG RNA 2: GGGAAUGGAUCCACAUCUACGAAUUCGUACCAUGAGAGAGGUUAUCCGCAUCACCGAGAUCGGAAGAGCACACGU | 34.8 ± 3.1
9 | target 1 insC 3' of 19,insG 3' of 16 (mixed) RNA 1: CACCCGUGCAAAAAUGCAGGGGUCUAAAACUGAGCGGAUAACCUCUCUAUGG RNA 2: GGGAAUGGAUCCACAUCUACGAAUUCGUACCAUCAGAGGAGGUUAUCCGCUCACCGAGAUCGGAAGAGCACACGU | 61 ± 11
10 | target 1 insU 3' of 14,insA 3' of 10 (mixed) RNA 1: CACCCGUGCAAAAAUGCAGGGGUCUAAAACUGAGCGGAUAACCUCUCUAUGG RNA 2: GGGAAUGGAUCCACAUCUACGAAUUCGUACCAUAGAGAUGGUUAAUCCGCUCACCGAGAUCGGAAGAGCACACGU | 43 ± 5
11 | target 1 insU 3' of 14,insU 3' of 1 (mixed) RNA 1: CACCCGUGCAAAAAUGCAGGGGUCUAAAACUGAGCGGAUAACCUCUCUAUGG RNA 2: GGGAAUGGAUCCACAUCUACGAAUUCGUACCAUAGAGAUGGUUAUCCGCUCAUCCGAGAUCGGAAGAGCACACGU | 48 ± 8
12 | target 1 U8G,G15C (mixed) RNA 1: CACCCGUGCAAAAAUGCAGGGGUCUAAAACUGAGCGGAUAACCUCUCUAUGG RNA 2: GGGAAUGGAUCCACAUCUACGAAUUCGUACCAUAGACAGGUUAGCCGCUCACCGAGAUCGGAAGAGCACACGU | 90 ± 19
13 | target 1 insA 3' of 7,insG 3' of 6 (mixed) RNA 1: CACCCGUGCAAAAAUGCAGGGGUCUAAAACUGAGCGGAUAACCUCUCUAUGG RNA 2: GGGAAUGGAUCCACAUCUACGAAUUCGUACCAUAGAGAGGUUAUCACGGCUCACCGAGAUCGGAAGAGCACACGU | 8.09 ± 0.34
